assay: soluble on expression in E. coli; label from the status in PepcDB or PDB records

Sequence | soluble on expression in E. coli
MPSSDPTQSSGFAGLRSTSWPVLGILSFGEELSGYDLKKWASYSVRFFYWSPSFSQVYSELKKLEDLGYVTSRTVVDDEARVKPKRLYKITDAGMAVMRSWAREAPIDPPVLKHGVMLRMWLGHLTEPEQLKDALKEHISYVEGMSRQAALDARDSDVEPTWAFAHMVNKWSERYYAAESELAKQMLADIDEAVERMHGEGTPEHPGVPKPTASHSIRRSREAQKEYQAAMKAAQDADDEAERED | not soluble
MKYFFETRLGETRYRLADGSLLCKDVPIGRTGKQLYGADDLPKLKPDKFVEIVVTRSPEQVFHPATLASFEGMSITILHPEDENGNVRLVNPENWKVLAVGHLQNVRRGTGEQSDLMLADLIVKDESAIQLIEDGLREVSCGYDAEYEQTEPGKAEQVDITGNHVALVPKGRAGNRCAIGDRDTMANQKKNWWNRMRAAIKTGDADTMNELVESAPASVTGDEGDLPQGVNLNINLSPQQPLPDKAPEMGGDPTGDSDDDLKTLLKALLAKLERNATGDNDNKPDDNPTGDGEDDEEETTITGDSAWRAEVIVPGIDLSRKMKPTAFKREVLASADKTLVRQIVGDADIRKLPKQSVDMAFNAVSEVAKGRNTRATTGDAQRLNMGMTSIASLNKQNAEFWANRKG | not soluble
MPVKVLNFPSVVLQHFLVGLTSTELFELTQCSLKSKDRVRPYEKSNKTFRMAVDFQRNWVDIRGVYRFYVKELVDGKLPKTYGKMGVREFGDKKVQVELDENEKTINIFWPTTEKEDRTFAVMKVAEHFIYTLGLGEFESVTLGQENHAGRIIDWANEKNLNIANFTIGNVDKEHDDVDKVAEKLYSASFFKKVSANFKCLINPTEAFKPNEFLPGIPKNTNMIFFHGAHWMTIDTLKDFTACSVILYDCKFTNKDINEFIKLWKNKEFERIFYISINVPQGSGFKLTEVIAGLDGFGEIENDATTMKREDGKEIEVSVLDEKKQIRIVVD | not soluble
MRRRENMDVNKAIRTAVDTGKVILGSKRTIKFVKHGEGKLVVLAGNIPKDLEEDVKYYAKLSNIPVYQHKITSLELGAVCGKPFPVAALLVLDEGLSNIMELVEKKEGGE | soluble
KSDSENIKDVKLQLNYAYEIIPVDYTNCNIDYLTTHDFYIDISSYKKKNFSVDSEVESYITTKFTKNQKVNIFGLPYIFTRYDVYYIYGGVTPSVNSNSENSKIVGNLLIDGVQQKTLINPIKIDKPIFTIQEFDFKIRQYLMQTYKIYDPNSPYIKGQLEIAINGNKHESFNLYDATSSSTRSDIFKKYKDNKTINMKDFSHFDIYLWTK | soluble
MDLTASLEDDQREKLRQYTEFTHQQDYEVAIGTLASLNWNLEQAIEAHLMQEDKNDDEDPEILETIPAAASGRNAGASSSSRFEPEVINIEDDEMPATRGRRRGRAVTPDETTTVDNQVKRLRIDDGSSSSSNGAATHHRGAAIPRQKRGQATEPTPSSSGSSSASFSSRRGTRANPVPPPNQEPAHPESARQNGGILASRHNNHNNQQNNHHHHHQRIPINPRRVDVFNVDSDEDDDSMAIAYEDDDDGVHEVHHSEVCEKDRAISAFLAPKLGNEVVARGSGPPNGRIPMIPDGFSSVSDALRNFVAIFSDRFCSTPQTQAFMPPFYTEPLPAAVKEAFDHPNSEHRRPLLFYINHDRSIAANIFASQVLCSETVSTLIRHQYVLFPWDITSDSNLMLFLEYLQAANMGDVRTIIQRLAMSKIESFPLMAIVVKERNSYRLVDYCRGTDTSDQVMEKLLSGVSEYSDIRMNEQSERREREEREAIRNQQEAEYKASLAADKARMEAKQQEIEEQRLEEERKLREEEEECVRRQTVASTVPEEPPASAPLAEIINVKFRLPEGGQDMRRFRRLESIQTLINYLSSKGYSPDKFKYFNSDFPKKEITRHFDLSHNFADTKWPAREQIFVEEI | not soluble
MSLGEKTKLEQIKDNGKLVVGTSAEFPPFEFHKVVDGKDSIKGFDIMLAEEFAKELGVKVEIKDMSFDGLIGALNADQVDIVLAGMSPTPEREKSVDFSELYYLSRNAVIVKDADIDKVKTEDDLKKLRVGVQAGSIQEEYVVNTLKMTTTKSLKAIPDLITELKNGNIDAVVTNEAVSLINVKKYDGIKMANTEVGKDVTEGMAAAIKKSDNNKDFIELLNKKIKELQDGKKIEEFLNEASTEAASEGHHHHHH | soluble
MLKDQANQLEFPRDFLGISLADQPNKYYFIIRTQRIVLEADSSIQLIMEKLQSYKSKVALYFDGFQYQLGDFRLRVGKVVPTHSENVRGIVMEVEYLPISSMEKAQKVMEEFLEIWNEALAKRSLPGKFVNIDLNFGEFGLGDIYTPQHTAVRYALVMAHMIATVQAVRG | soluble
MAHHHHHHMWSGLKLERLLYTFPETTTPTGWSQSDPLLSSPLGEADANEGDSSAVFGEDVNVEHRHFNNGERRRKLALRPFTVPASAMAEEGGEEGSHVHLGFSFPGEGKFDEEPEAVLWCPQGNCQWLNEESDCSQRSAMSCPARPTKTTIQLGDPGAPIKKNRERKYICNDADENSNSRVGPALYHQLEFFQESNSVSFPCESSALSHITPLDETGESVDLANHMSHLTVAVSPIQKRLLFTGVLDDAVDAPSGRDVGDDKGVGSGLQSLRREKRFLEEMDTNRDAANSNSMACTMPREPHRKFRRIDAGENDRKSLDNHFHSRR | not soluble
MSSSSPGEPLEPTDQDLDVLLKNLGNLVTPMALRVAATLRLVDHLLAGADTLAGLADRTDTHPQALSRLVRHLTVVGVLEGGEKQGRPLRPTRLGMLLADGHPAQQRAWLDLNGAVSHADLAFTGLLDVVRTGRPAYAGRYGRPFWEDLSADVALADSFDALMSCDEDLAYEAPADAYDWSAVRHVLDVGGGNGGMLAAIALRAPHLRGTLVELAGPAERARRRFADAGLADRVTVAEGDFFKPLPVTADVVLLSFVLLNWSDEDALTILRGCVRALEPGGRLLVLDRADVEGDGADRFFSTLLDLRMLTFMGGRVRTRDEVVDLAGSAGLALASERTSGSTTLPFDFSILEFTAVSEEAAPAAQASEALPAQE | soluble
SLRTYFAQRAEMEQLAATEAMLRRQIADLEEQQVKLADPAYIAAQARERLGFVMPGDIPFQVQLPSTPLAPPQPGSDAATATNNEPWYTALWHTIADDPHLPPAAPPAPEPGRPGPLPPASPNPEQPGG | soluble
MGSDKIHHHHHHMADNETIPSCANCSAVWQKSGTTNCWSSPDNRPGQPANCPSKTSPDIIDESFAEYRGDGDDARLARVAARVEGLCYQKMQGSDAVVARWTRVEDTVALAKLMGWTKVGIATCIGLLEETKQLVTILEAQGLEPASVCCKSGSIDKLELGLEESDKVRPGTFEPACNPIAQAEILNRCGTQMNIIVGLCVGHDMLFTKHSKAPVTTLVCKDRVTGHNPAAVLYGQNFYYKRLKVQPVAVPTEEK | not soluble
MSVQDTKAVEFSMGHIRSSSVSLVAEATSNTNSEDKLSKVQLYEDLCRYEDTLSKLVESVDRFKPNLDIAKDLIRTDEALFENVKLLAEYDNIYRNLQKIDKDSEELDSKTRKILEILNECHDELKALPMLEQVEFEKNTILQQRSKINSTELLDYATKLSKFTKIPPTFDKGAVGPNNFIWPAEDALRRGMLAMASLHSKELTRIPGEEVEETEVPTVPPSQSEEQKGQMAKKEGTPKTDSFIFDGTAKEVGDEADNTKDKEKEENNDDALDLDLDLFDPDDF | soluble
MLSPITLEALHILDAIERRGSFAAAANELNRAPSSLSYQIQKLEQDLDLMIFDRSGHRANFTEAGKLILERGRAILAATEKLVNDATLLANGWELDITIALDGIVPAANLFPMVEALGNISKTRVRIQDEILAGCWEALATGRADLLICPRIEALPQDVKAETIGTMKMIWVAAPTHYVHRRSGEFNEEAREKYRAIAIADTAREQPAMSVNILQRQPRLTVSNLDAKCKALVAGLGIGTLPLQVAQPYIDKGELKAIHGSEDLEMDIVLAWRRNQMGEAKSWCIQYLKKNWRWE | not soluble
MLQDHKITFLGAGSMAESIIAGLLSKKLLLPSQVIATNLCDEAKLTKLEDRYGICTTQNRQEAVRQGTIIFLAMKPKNIEEAIEEIRGEITEKQLFISVLAGTTTSYIETLLAHEVPVVRTMPNTSAKVGASATGLCGGRYANASHVKLATLIFTAIGTVTEVTEDKLDAVTGLAGSGPAYFYYMVEAMERAAVQSGLTESEAKAFISQTLIGTGKRLEQTSKTAEELYKEVMSPGGTTEAGLRVLEQQQMQQAIEEAITAAINRSRELGSTPSLEIKKLEHHHHHH | soluble
MSLSDDPMASIKLLNLERENSAIAQYQSNIANLKTTLSSQETHLDSVNESLKSMRDIVLWGANGSLTDQDRSGMITELKSYRDSIESSFNAQDEEGHFLFSGTKTDTAALNKSSGAYVVEGNSDVRVVTVAKGVTMDSNMTAQEILDIGGGKNVLNQIDALIAEFEKPSPNFQAEVDASLNAIDDTMANVLGAMTEIGGRHNNLDLMDGAHSENKLFVDKVSGDLSALDYGEASVRLSNYMAALQATQASYVKINDLSLFDREGHHHHHH | soluble
MVPQTGRAARATRESGRQTRDALFTAATELFLEHGEGVPITQICAAAGAHPNQVTYYYGSKERLFVEVACAAVLRAGKRAEDDAATAETVGDYTEKLVGSLLGPGAPSVELFTSAMLMTGRRSELRDLITDTLRTLHSSGEVALIRTLMRTGWQLRAGIDVESKAFWSAIFGLVIQKTATGESFGYSLEEAVAVIFANLQIPETVRNTSID | soluble
MGSDKIHHHHHHMKYFVSRSIYTFNSGVEHSQANRTLLFNASGDQARYVTRDYNRLWVRDAERVNLNSTNVLNMYDFFQGTSAVECVQLPVREFKQLALNEYQLVEHGADYSTVDHAGRQLARINIMPGTVGLVGDIEYYDRFETVVSRENFDWRGFKSSIDYFHPDGSLGVRRFLNLAGEVVLENTYMNVEGQLQPTMWKLVNYHGKNYRFDTEDQLFLFFLNEVTQQTTDNVVVSDHRELDYVIADVENATSKWVALHGSHVDQGGTPFAAYSIALQIRAQDFDGIIVPTQEQQLELKEQFPELNVQVAPDVAISPELINSKPVWLRDRIAGRIIFSGRLEADKRPMEALKAFFKVLEQFLTLRWNLGDILTTKTC | not soluble
SGNTSSERSGGEKTHRRESRSGKDGTRPKILMDSAEDGDLFQSDDAKEFLAWRQDQESDSKTPLEERPTVFRWKGPGKEIYLSGSFNNWATKIPLNKSHNNFVAIIDLPEGEHQYKFYVDGHWTLDPKEPVVTNKSGVVNNVIKVRKTDFEVFDALKTDSEKCADMSDLSSSPPGPYHQDPYSTKSEDKLRSPPILPPHLLQVLLNKDTGISCDPTLLPEPNHVMLNHLYALSIKDGVMVLSATHRYKKKYVTTLLYKPI | soluble
GPGSMDGRNGSKRARSEPANGPNQSNVGTSGVEEPHVEEVPARDPELERQLDRLNIDDNLKESLRGLSPSTRGEVMNDIIRSETIERASSLMEQANLLSLIELRRLPELMEEGMSSQHYRADVDDDSELHEFGQALEDMQADGQSPSPQRGRPHGMLHTPGPLILEFLRAFAAGTHAAFADAAGVSEHLNILSELAAQRAMGVTEDVDNMSYEELLELEDKIGYVSRGVKPEDVQKCVKDVPTPHEGNCVVCQCEWSDNAETAPAVVELNRCKHVFHRTCIREWLLKNKKCPVCTQEVV | soluble
MSTVPISGRSQIMLVQDSEILSSSALQYKQFLSKVKISKNATSTAQVRRVGQKVAAATMLYLKQNGLGDMASQMKWEFNVVEDKAVNAFCMPGGKIVVYTGLLKLVGSDAELATVISHEVSHAVARHSNERISQEYLRQMGGNILGAAVSNKSAALQTVIGQAYGIGSQVLITLPYNRKQEYEADKIGLVFMAMAGYNPNAAITFWQKMAAQGNGRVEFLSTHPSDANRIAAIRQYMPEAMKHYKSKLEHHHHHH | soluble

From the DeepSol protein solubility set
